# Source: PMC6226330
# B1: S. aureus DHPS (Staphylococcus aureus) (protein)
# chain: MTKTKIMGILNVTPDSFSDGGKFNNVESAVTRVKAMMDEGADIIDVGGVSTRPGHEMITVEEELNRVLPVVEAIVGFDVKISVDTFRSEVAEACLKLGVDIINDQWAGLYDHRMFQVVAKYDAEIVLMHNGNGNRDEPVVEEMLTSLLAQAHQAKIAGIPSNKIWLDPGIGFAKTRNEEAEVMARLDELVATEYPVLLATSRKRFTKEMMGYDTTPVERDEVTAATTAYGIMKGVRAVRVHNVELNAKLAKGIDFLKENENARHNFS
# Tests used:
# Experiment in all cases: purified protein, by the assay type
# Settings in all cases: pH 8.0; 25.0 °C
# [1] = substrate: Nc1ccc(C(=O)O)c(F)c1
# [2] = substrate: Nc1ccc(C(=O)O)c(O)c1
# [3] = substrate: Nc1ccc(C(=O)O)cc1
protein,measurement,setting,value
B1,Km,[1],5 ± 2 µM
same,kcat,[1],200 ± 20 min^–1
same,Km,[2],8 ± 1 µM
same,kcat,[2],220 ± 10 min^–1
same,Km,[3],2 ± 1 µM
same,kcat,[3],170 ± 15 min^–1
